Measurements from paper PMC3688715.

Biological target: Heteropneustes fossilis hepatic cytosolic arginase (ARG I) (Heteropneustes fossilis (endogenous in liver))
Experiment: SEC + other: SDS-PAGE and western blotting; native mass of the purified enzyme by gel filtration on Sephadex G-150 with four standard proteins (75±3 kDa); subunit mass by SDS-PAGE and western blotting (24 kDa); single band on native PAGE

- stoichiometry N: 3
Substance: Heteropneustes fossilis hepatic cytosolic arginase (ARG I) (enzyme)
